Changes are numbered by the printed parent chain. In names and notes the source's numbering stands.
Assays:
[1] = test system: engineered receptors and wild type nAchRa7 expressed in HEK293T cells; assay: High throughput electrophysiology (IonFlux HT/Mercury automated patch clamp), EC50; assay type: cell-based, human
Method: To confirm the […] determined by plate reader as well as develop a better understanding of maximum current flow, the engineered receptors were subjected to high throughput electrophysiology system, as described below. For HEK293T studies, cDNAs encoding ion channels were cloned into pcDNA3.1 using standard recombination techniques. HEK293T cells from Clontech (Lenti-XTM 293T Cell Line) were cultured in DMEM supplemented with 10% FBS and 1% Pen/Strep to 40-50% confluence using standard cell culture protocols, transfected with ion channel plasmids at a concentration of 18 μg per 15 cm dish using Fugene 6, and grown for an additional 24 hours. Cells were then assayed on an electrophysiological system (IonFluxHT and/or Mercury, Fluxion Biosciences) in which dose-response relationships may be assessed through a microfluidics-based platform for establishing whole cell configurations. Ensemble plates were primed with extracellular buffer (140 mM NaCl, 5 mM KCl, 2 mM CaCl2), 1 mM MgCl2, 10 mM HEPES, and 10 mM glucose, pH 7.2 with NaOH, mOsm 310), intracellular buffer (145 mM CsCl, 2 mM CaCl2, 2 mM MgCl2, 10 mM HEPES, and 10 mM EGTA, pH 7.2 with CsOH, mOsm 305), as adapted from Lynagh and Lynch, and test compounds (stocks prepared fresh) diluted in extracellular buffer. Cells were then released from the plate with Accutase, centrifuged, resuspended in extracellular buffer, and loaded into Ensemble plates. Cells were then subjected to a standard protocol for priming, trapping, breaking, and establishing whole cell configuration, with cells held at −60 mV throughout the recording. After recording baseline, progressive doses of test compounds were applied using the IonFlux software to assess dose response relationships. Data were then analyzed off-line using custom Python scripts to convert data to .csv format, re-plot traces, and apply QC measurements to reject unstable recordings (i.e. thresholding based on access resistance and/or standard deviation in baseline, as well as artifact rejection). Peak currents were then calculated, and population data were fit using a 4-parameter logistic equation as described by the Hill Equation. Currents were measured on an automated patch clamp system (Fluxion Biosciences) following 1 second addition of drug and the EC50 values calculated are tabulated below in Table 22A and Table 22B below and Table 21A and Table 21B above (in Example 2).

[2] = test system: engineered chimeric receptor SEQ ID NO: 33 and its mutants (human α7-nAChR ligand binding domain / human GlyRα1 ion pore domain) in Lenti-X 293T cells; assay: YFP fluorescence quenching anion reporter plate reader assay (percent quench, EC50); assay type: cell-based; details: for YFP fluorescence quenching using Facinicline, 30 nM fac: ligand Facinicline 30 nM; for YFP fluorescence quenching using Facinicline, 300 nM fac: ligand Facinicline 300 nM; for YFP fluorescence quenching using Facinicline, 30 uM fac: ligand Facinicline 30 uM; for YFP fluorescence quenching using TC-6987, 1 uM tc6987: ligand TC-6987 1 uM; for YFP fluorescence quenching using TC-6987, 10 uM tc6987: ligand TC-6987 10 uM; for YFP fluorescence quenching using TC-6987, 500 uM tc6987: ligand TC-6987 500 uM; for YFP fluorescence quenching using CNL001 (percent quench): receptor named in row; for YFP fluorescence quenching using Varenicline, 3 nM var: ligand Varenicline 3 nM; for YFP fluorescence quenching using Varenicline, 30 nM var: ligand Varenicline 30 nM; for YFP fluorescence quenching using Varenicline, 300 nM var: ligand Varenicline 300 nM; for YFP fluorescence quenching using Varenicline, 500 nM var: ligand Varenicline 500 nM; for YFP fluorescence quenching using Varenicline, 1 uM var: ligand Varenicline 1 uM
How it was run: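 Percent quench compares mean YFP signal over the final 10 s with the 15 s baseline before ligand, added in iodide-containing extracellular solution (pH 7.2). Cells were LX293T carrying a YFP anion reporter, transiently transfected with the channel construct; plates were preincubated 30 min at 37 °C.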

[3] = 3 nM brd (TC-5619/Bradanicline)
[4] = 30 nM brd (TC-5619/Bradanicline)
[5] = 300 nM brd (TC-5619/Bradanicline)

B1: CODA536: engineered receptor: L131D, S172D in SEQ ID NO: 33 (protein)
chain: MRCSPGGVWLALAASLLHVSLQGEFQRKLYKELVKNYNPLERPVANDSQPLTVYFSLSLLQIMDVDEKNQVLTTNIWLQMSWTDHYLQWNVSEYPGVKTVRFPDGQIWKPDILLYNSADERFDATFHTNVDVNSSGHCQYLPPGIFKSSCPMDLKNFPMDVQTCKLKFGSWDYGGWSLDLQMQEADISGYIPNGEWDLVGIPGKRSERFYECCKEPYPDVTFTVTMRRRMGYYLIQMYIPSLLIVILSWISFWINMDAAPARVGLGITTVLTMTTQSSGSRASLPKVSYVKAIDIWMAVCLLFVFSALLEYAAVNFVSRQHKELLRFRRKRRHHKSPMLNLFQEDEAGEGRFNFSAYGMGPACLQAKDGISVKGANNSNTTNPPPAPSKSPEEMRKLFIQRAKKIDKISRIGFPMAFLIFNMFYWIIYKIVRREDVHNQ
modifications: synthetic sequence of chimeric LGIC
fold increased potency towards AZD-0328 compared to wild type control receptor ([1]; ligand AZD-0328): at least 10 fold | fold increased potency towards RG-3487 compared to wild type receptor ([1]; ligand RG-3487): at least 10 fold | YFP fluorescence quenching using TC-5619/Bradanicline (percent quench) ([2]; 1 nM brd (TC-5619/Bradanicline)): −1.24% | YFP fluorescence quenching using TC-5619/Bradanicline (percent quench) [2, 3]: 0.25% | YFP fluorescence quenching using TC-5619/Bradanicline (percent quench) ([2]; 10 nM brd (TC-5619/Bradanicline)): −2.57% | YFP fluorescence quenching using TC-6683 (percent quench) ([2]; 30 nM TC-6683): −22.285% | YFP fluorescence quenching using TC-5619/Bradanicline (percent quench) [2, 4]: 0.78% | YFP fluorescence quenching using ABT-126 (percent quench) ([2]; 50 nM abt (ABT-126)): −3.19% | YFP fluorescence quenching (percent quench) ([2]; 100 nM CNL002): 71.72% | YFP fluorescence quenching using ABT-126 (percent quench) ([2]; 100 nM abt (ABT-126)): 7.58% | YFP fluorescence quenching using AZD-0328 (percent quench) ([2]; 100 nM azd0328): 51.44% | YFP fluorescence quenching using TC-5619/Bradanicline (percent quench) ([2]; 100 nM brd (TC-5619/Bradanicline)): 4.51% | YFP fluorescence quenching using TC-6683 (percent quench) ([2]; 300 nM TC-6683): −23.926% | YFP fluorescence quenching using ABT-126 (percent quench) ([2]; 300 nM abt (ABT-126)): −1.65% | YFP fluorescence quenching using AZD-0328 (percent quench) ([2]; 300 nM azd0328): 77.12% | YFP fluorescence quenching using TC-5619/Bradanicline (percent quench) [2, 5]: 30.97% | YFP fluorescence quenching (percent quench) ([2]; 1 uM CNL002): 77.26% | YFP fluorescence quenching using ABT-126 (percent quench) ([2]; 1 uM abt (ABT-126)): 31.29% | YFP fluorescence quenching using TC-5619/Bradanicline (percent quench) ([2]; 1 uM brd (TC-5619/Bradanicline)): 44.41% | YFP fluorescence quenching using TC-6683 (percent quench) ([2]; 3 uM TC-6683): −20.514% | YFP fluorescence quenching (percent quench) ([2]; 10 uM ach (acetylcholine)): −12.91% | YFP fluorescence quenching (percent quench) ([2]; 30 uM CNL002): 77.5% | YFP fluorescence quenching using TC-6683 (percent quench) ([2]; 30 uM TC-6683): −3.078% | YFP fluorescence quenching using AZD-0328 (percent quench) ([2]; 30 uM azd0328): 79.26% | YFP fluorescence quenching using TC-6683 (percent quench) ([2]; 100 uM TC-6683): 7.37% | YFP fluorescence quenching (percent quench) ([2]; 100 uM ach (acetylcholine)): −20.88% | YFP fluorescence quenching (percent quench) ([2]; 1 mM ach (acetylcholine)): 79.85% | YFP fluorescence quenching (percent quench) ([2]; 3 mM ach (acetylcholine)): 79.98% | YFP fluorescence quenching using Facinicline, 30 nM fac [2]: 24.15 | YFP fluorescence quenching using Facinicline, 300 nM fac [2]: 80.17 | YFP fluorescence quenching using Facinicline, 10 uM fac ([2]; ligand Facinicline 10 uM): 81.34 | YFP fluorescence quenching using Facinicline, 30 uM fac [2]: 79.9 | YFP fluorescence quenching using TC-6987, 1 uM tc6987 [2]: −18.24 | YFP fluorescence quenching using TC-6987, 10 uM tc6987 [2]: −23.06 | YFP fluorescence quenching using TC-6987, 500 uM tc6987 [2]: −19.3

B2: CODA109: engineered receptor: S170T in SEQ ID NO: 33 (protein)
chain: B1 chain with D131L, S170T, D172S
modifications: synthetic sequence of chimeric LGIC
YFP fluorescence quenching using CNL001 (percent quench) ([2]; 1 nM CNL001, first column so headed): 19.755% | YFP fluorescence quenching using CNL001 (percent quench) ([2]; 1 nM CNL001, second column so headed): 65.484% | YFP fluorescence quenching using TC-5619/Bradanicline (percent quench) [2, 3]: 70.58% | YFP fluorescence quenching using CNL001 (percent quench) ([2]; 10 nM CNL001, first column so headed): 79.024% | YFP fluorescence quenching using CNL001 (percent quench) ([2]; 10 nM CNL001, second column so headed): 81.563% | YFP fluorescence quenching using TC-5619/Bradanicline (percent quench) [2, 4]: 80.71% | YFP fluorescence quenching using CNL001 (percent quench) ([2]; 50 nM CNL001, first column so headed): 81.926% | YFP fluorescence quenching using CNL001 (percent quench) ([2]; 50 nM CNL001, second column so headed): 83.092% | YFP fluorescence quenching using ABT-126 (percent quench) ([2]; 50 nM abt (ABT-126)): 55.83% | YFP fluorescence quenching using CNL001 (percent quench) ([2]; 100 nM CNL001, first column so headed): 83% | YFP fluorescence quenching using CNL001 (percent quench) ([2]; 100 nM CNL001, second column so headed): 83.811% | YFP fluorescence quenching (percent quench) ([2]; 100 nM CNL002): 73.48% | YFP fluorescence quenching using ABT-126 (percent quench) ([2]; 100 nM abt (ABT-126)): 68.89% | YFP fluorescence quenching using AZD-0328 (percent quench) ([2]; 100 nM azd0328): 84.01% | YFP fluorescence quenching using ABT-126 (percent quench) ([2]; 300 nM abt (ABT-126)): 72.52% | YFP fluorescence quenching using AZD-0328 (percent quench) ([2]; 300 nM azd0328): 87.08% | YFP fluorescence quenching using TC-5619/Bradanicline (percent quench) [2, 5]: 80.66% | YFP fluorescence quenching using CNL001 (percent quench) ([2]; 1 uM CNL001, first column so headed): 81.834% | YFP fluorescence quenching using CNL001 (percent quench) ([2]; 1 uM CNL001, second column so headed): 83.858% | YFP fluorescence quenching (percent quench) ([2]; 1 uM CNL002): 70.03% | YFP fluorescence quenching using ABT-126 (percent quench) ([2]; 1 uM abt (ABT-126)): 70.96% | YFP fluorescence quenching (percent quench) ([2]; 10 uM ach (acetylcholine)): 82.91% | YFP fluorescence quenching (percent quench) ([2]; 30 uM ach (acetylcholine)): 82.53% | YFP fluorescence quenching using AZD-0328 (percent quench) ([2]; 30 uM azd0328): 87.27% | YFP fluorescence quenching (percent quench) ([2]; 50 uM ach (acetylcholine)): 82.11% | YFP fluorescence quenching (percent quench) ([2]; 100 uM ach (acetylcholine)): 83.68% | YFP fluorescence quenching (percent quench) ([2]; 1 mM ach (acetylcholine)): 69.89% | YFP fluorescence quenching (percent quench) ([2]; 3 mM ach (acetylcholine)): 78.12% | YFP fluorescence quenching using Facinicline, 30 nM fac [2]: 76.45 | YFP fluorescence quenching using Facinicline, 100 nM fac ([2]; ligand Facinicline 100 nM): 82.45 | YFP fluorescence quenching using Facinicline, 300 nM fac [2]: 71.09 | YFP fluorescence quenching using Facinicline, 30 uM fac [2]: 69.41 | YFP fluorescence quenching using TC-6987, 1 uM tc6987 [2]: 71.45 | YFP fluorescence quenching using TC-6987, 10 uM tc6987 [2]: 71.04 | YFP fluorescence quenching using TC-6987, 500 uM tc6987 [2]: 66.2 | YFP fluorescence quenching using Varenicline, 3 nM var ([2]; first column): −20.96 | YFP fluorescence quenching using Varenicline, 3 nM var ([2]; second column): −19.953 | YFP fluorescence quenching using Varenicline, 30 nM var ([2]; first column): −16.094 | YFP fluorescence quenching using Varenicline, 30 nM var ([2]; second column): −21.502 | YFP fluorescence quenching using Varenicline, 300 nM var ([2]; first column): 64.373 | YFP fluorescence quenching using Varenicline, 300 nM var ([2]; second column): 71.198 | YFP fluorescence quenching using Varenicline, 500 nM var ([2]; first column): 71.892 | YFP fluorescence quenching using Varenicline, 500 nM var ([2]; second column): 73.53 | YFP fluorescence quenching using Varenicline, 1 uM var ([2]; first column): 75.461 | YFP fluorescence quenching using Varenicline, 1 uM var ([2]; second column): 78.578

Source: patent US20250152742A1, “COMPOSITIONS AND METHODS FOR NEUROLOGICAL DISEASES” (Trames Bio, Inc., priority 2022, published 2025)
